{"source": "patent US20110129854A1", "key": {"[1]": {"biological_target": "Cardiac troponin-T (human) (UniProt P45379)", "assay": "sandwich chemiluminescent immunoassay (…); detection 7G7 conjugate, capture M8020207 microparticles; cTnT 0.25 ug/mL"}, "[2]": {"biological_target": "Cardiac troponin-T (human) (UniProt P45379)", "assay": "sandwich chemiluminescent immunoassay (…); detection 7G7 conjugate, capture 1C11 microparticles; cTnT 0 ug/mL (blank)"}, "[3]": {"biological_target": "Cardiac troponin-T (human) (UniProt P45379)", "assay": "sandwich chemiluminescent immunoassay (…); detection 7G7 conjugate, capture 7F4 microparticles; cTnT 0.5 ug/mL"}, "[4]": {"biological_target": "Cardiac troponin-T (human) (UniProt P45379)", "assay": "sandwich chemiluminescent immunoassay (…); detection 7G7 conjugate, capture M8020207 microparticles; cTnT 2 ug/mL"}, "[5]": {"biological_target": "Cardiac troponin-T (human) (UniProt P45379)", "assay": "sandwich chemiluminescent immunoassay (…); detection 7G7 conjugate, capture M8020207 microparticles; cTnT 0 ug/mL (blank)"}, "[6]": {"biological_target": "human cardiac troponin-I-T-C complex (human) (UniProt P63316)", "assay": "sandwich chemiluminescent immunoassay (…); detection 7G7 conjugate 30 ng/mL, capture M8020207 microparticles; cTnITC standard, 42 pM cTnT"}, "[7]": {"biological_target": "human cardiac troponin-I-T-C complex (human) (UniProt P63316)", "assay": "sandwich chemiluminescent immunoassay (…); detection 7G7 conjugate 30 ng/mL, capture M8020207 microparticles; cTnITC standard, 0 pM cTnT (blank)"}, "[8]": {"biological_target": "Cardiac troponin-T (human) (UniProt P45379)", "assay": "sandwich chemiluminescent immunoassay (…); detection 7G7 conjugate, capture 7F4 microparticles; cTnT 0.25 ug/mL"}, "[9]": {"biological_target": "Cardiac troponin-T (human) (UniProt P45379)", "assay": "sandwich chemiluminescent immunoassay (…); detection 7G7 conjugate, capture 1C11 microparticles; cTnT 0.5 ug/mL"}, "[10]": {"biological_target": "Cardiac troponin-T (human) (UniProt P45379)", "assay": "sandwich chemiluminescent immunoassay (…); detection 7G7 conjugate, capture M8020207 microparticles; cTnT 1 ug/mL"}, "[11]": {"biological_target": "human cardiac troponin-I-T-C complex (human) (UniProt P63316)", "assay": "sandwich chemiluminescent immunoassay (…); detection 7G7 conjugate, capture M8020207 microparticles; negative human plasma without spiked cTnITC (blank)"}, "[12]": {"biological_target": "Cardiac troponin-T (human) (UniProt P45379)", "assay": "sandwich chemiluminescent immunoassay (…); detection 7G7 conjugate, capture 7F4 microparticles; cTnT 2 ug/mL"}, "[13]": {"biological_target": "Cardiac troponin-T (human) (UniProt P45379)", "assay": "sandwich chemiluminescent immunoassay (…); detection 7G7 conjugate, capture M8020207 microparticles; cTnT 0.5 ug/mL"}, "[14]": {"biological_target": "Cardiac troponin-T (human) (UniProt P45379)", "assay": "sandwich chemiluminescent immunoassay (…); detection 7G7 conjugate, capture 1C11 microparticles; cTnT 2 ug/mL"}, "[15]": {"biological_target": "Cardiac troponin-T (human) (UniProt P45379)", "assay": "sandwich chemiluminescent immunoassay (…); detection 7G7 conjugate, capture 7F4 microparticles; cTnT 0 ug/mL (blank)"}, "[16]": {"biological_target": "human cardiac troponin-I-T-C complex (human) (UniProt P63316)", "assay": "sandwich chemiluminescent immunoassay (…); detection 7G7 conjugate, capture M8020207 microparticles; human plasma spiked with cTnITC, nominal 42 pM cTnT as labelled in the table"}, "[17]": {"biological_target": "human cardiac troponin-I-T-C complex (human) (UniProt P63316)", "assay": "sandwich chemiluminescent immunoassay (…); detection 7G7 conjugate, capture M8020207 microparticles; human plasma spiked with cTnITC, nominal 7 pM cTnT"}, "[18]": {"biological_target": "Cardiac troponin-T (human) (UniProt P45379)", "assay": "sandwich chemiluminescent immunoassay (…); detection 7G7 conjugate, capture 1C11 microparticles; cTnT 1 ug/mL"}, "[19]": {"biological_target": "Cardiac troponin-T (human) (UniProt P45379)", "assay": "sandwich chemiluminescent immunoassay (…); detection 7G7 conjugate, capture 7F4 microparticles; cTnT 1 ug/mL"}, "[20]": {"biological_target": "human cardiac troponin-I-T-C complex (human) (UniProt P63316)", "assay": "sandwich chemiluminescent immunoassay (…); detection 7G7 conjugate 30 ng/mL, capture M8020207 microparticles; cTnITC standard, 7 pM cTnT"}, "[21]": {"biological_target": "Cardiac troponin-T (human) (UniProt P45379)", "assay": "sandwich chemiluminescent immunoassay (…); detection 7G7 conjugate, capture 1C11 microparticles; cTnT 0.25 ug/mL"}, "[22]": {"biological_target": "human cardiac troponin-I-T-C complex (human) (UniProt P63316)", "assay": "sandwich chemiluminescent immunoassay (…); detection 7G7 conjugate 30 ng/mL, capture M8020207 microparticles; cTnITC standard, 279 pM cTnT"}, "[23]": {"biological_target": "human cardiac troponin-I-T-C complex (human) (UniProt P63316)", "assay": "sandwich chemiluminescent immunoassay (…); detection 7G7 conjugate 30 ng/mL, capture M8020207 microparticles; cTnITC standard, 14 pM cTnT"}}}
{"substance": "Murine anti-cardiac troponin-T 7G7 acridinium-9-carboxamide conjugate (antibody)", "values": [{"measurement": "RLU", "setting": "[1]", "value": 96200, "unit": "RLU"}, {"measurement": "RLU", "setting": "[2]", "value": 317, "unit": "RLU"}, {"measurement": "RLU", "setting": "[3]", "value": 17200, "unit": "RLU"}, {"measurement": "RLU", "setting": "[4]", "value": 305000, "unit": "RLU"}, {"measurement": "RLU", "setting": "[5]", "value": 338, "unit": "RLU"}, {"measurement": "RLU", "setting": "[6]", "value": 81500, "unit": "RLU"}, {"measurement": "RLU", "setting": "[7]", "value": 2370, "unit": "RLU"}, {"measurement": "RLU", "setting": "[8]", "value": 9080, "unit": "RLU"}, {"measurement": "RLU", "setting": "[9]", "value": 149000, "unit": "RLU"}, {"measurement": "RLU", "setting": "[10]", "value": 251000, "unit": "RLU"}, {"measurement": "RLU", "setting": "[11]", "value": 2070, "unit": "RLU"}, {"measurement": "RLU", "setting": "[12]", "value": 46800, "unit": "RLU"}, {"measurement": "RLU", "setting": "[13]", "value": 164000, "unit": "RLU"}, {"measurement": "RLU", "setting": "[14]", "value": 311000, "unit": "RLU"}, {"measurement": "RLU", "setting": "[15]", "value": 333, "unit": "RLU"}, {"measurement": "RLU", "setting": "[16]", "value": 74100, "unit": "RLU"}, {"measurement": "RLU", "setting": "[17]", "value": 13800, "unit": "RLU"}, {"measurement": "RLU", "setting": "[18]", "value": 238000, "unit": "RLU"}, {"measurement": "RLU", "setting": "[19]", "value": 29900, "unit": "RLU"}, {"measurement": "RLU", "setting": "[20]", "value": 15300, "unit": "RLU"}, {"measurement": "RLU", "setting": "[21]", "value": 79400, "unit": "RLU"}, {"measurement": "RLU", "setting": "[22]", "value": 423000, "unit": "RLU"}, {"measurement": "RLU", "setting": "[23]", "value": 28100, "unit": "RLU"}]}
